Source: patent US20230250154

Legend:
[1] = tested on: the four selected A2M variants
[2] = tested on: T1, Tagged wild-type human A2M
T1 sequence: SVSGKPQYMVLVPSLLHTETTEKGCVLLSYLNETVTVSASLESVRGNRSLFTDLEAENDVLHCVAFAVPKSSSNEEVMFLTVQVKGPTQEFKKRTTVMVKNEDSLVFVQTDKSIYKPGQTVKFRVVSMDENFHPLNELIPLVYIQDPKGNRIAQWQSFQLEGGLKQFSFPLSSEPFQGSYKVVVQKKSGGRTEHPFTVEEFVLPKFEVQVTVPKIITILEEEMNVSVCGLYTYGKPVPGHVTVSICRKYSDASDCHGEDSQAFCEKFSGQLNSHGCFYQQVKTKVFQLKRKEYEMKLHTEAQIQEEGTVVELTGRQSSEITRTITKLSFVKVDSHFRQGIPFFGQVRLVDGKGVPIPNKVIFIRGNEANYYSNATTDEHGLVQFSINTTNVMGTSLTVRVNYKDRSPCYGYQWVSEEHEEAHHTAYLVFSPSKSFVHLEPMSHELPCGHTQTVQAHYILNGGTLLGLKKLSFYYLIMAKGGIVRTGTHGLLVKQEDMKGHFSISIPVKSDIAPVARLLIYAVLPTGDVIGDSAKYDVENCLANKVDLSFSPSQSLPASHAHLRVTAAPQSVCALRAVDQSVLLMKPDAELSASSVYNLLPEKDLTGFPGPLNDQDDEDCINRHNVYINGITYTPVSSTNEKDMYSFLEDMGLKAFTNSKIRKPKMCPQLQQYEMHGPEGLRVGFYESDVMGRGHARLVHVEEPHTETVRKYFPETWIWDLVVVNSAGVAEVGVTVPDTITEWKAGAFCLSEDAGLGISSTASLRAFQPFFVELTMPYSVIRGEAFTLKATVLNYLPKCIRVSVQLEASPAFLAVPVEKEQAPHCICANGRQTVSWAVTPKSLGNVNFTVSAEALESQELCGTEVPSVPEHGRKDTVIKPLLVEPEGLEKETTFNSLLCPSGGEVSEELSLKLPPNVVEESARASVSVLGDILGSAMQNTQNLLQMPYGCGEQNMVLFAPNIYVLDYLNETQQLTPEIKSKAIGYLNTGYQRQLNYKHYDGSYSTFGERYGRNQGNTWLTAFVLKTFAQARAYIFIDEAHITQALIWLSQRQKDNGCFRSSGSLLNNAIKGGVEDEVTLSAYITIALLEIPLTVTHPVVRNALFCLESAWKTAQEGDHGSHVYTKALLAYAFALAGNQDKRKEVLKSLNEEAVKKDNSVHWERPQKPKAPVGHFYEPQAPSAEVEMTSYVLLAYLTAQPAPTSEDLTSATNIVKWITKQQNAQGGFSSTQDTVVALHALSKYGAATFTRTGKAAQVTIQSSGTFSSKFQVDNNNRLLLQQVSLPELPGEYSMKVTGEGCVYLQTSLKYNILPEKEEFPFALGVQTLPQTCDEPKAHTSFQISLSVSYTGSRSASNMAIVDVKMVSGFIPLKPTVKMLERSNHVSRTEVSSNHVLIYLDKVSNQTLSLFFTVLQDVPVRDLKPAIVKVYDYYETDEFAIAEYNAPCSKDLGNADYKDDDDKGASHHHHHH

chymotrypsin
slope of FTC-casein digestion (fluorescent proteolysis assay) [1]: the variants are all capable of inhibiting various proteases, including trypsin and chymotrypsin approximately equally, to the wild-type A2M | slope of FTC-casein digestion (fluorescent proteolysis assay) [2]: the variants are all capable of inhibiting various proteases, including trypsin and chymotrypsin approximately equally, to the wild-type A2M
